Laboratory results taken from US20260167699A1 (Chugai, published 2026).
Substitutions are numbered along the chain they refer to.

T1: FcγRIIb extracellular domain, C-terminal His tag (human, UniProt P31994 43-217)
T1 construct: extracellular domain; also called 2b
T1 sequence: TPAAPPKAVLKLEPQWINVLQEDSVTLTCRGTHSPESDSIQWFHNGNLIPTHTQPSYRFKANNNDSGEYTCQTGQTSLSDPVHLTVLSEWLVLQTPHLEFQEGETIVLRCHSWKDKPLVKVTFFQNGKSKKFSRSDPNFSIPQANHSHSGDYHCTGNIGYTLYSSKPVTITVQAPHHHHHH

T2: FcγRIIa(H) extracellular domain, C-terminal His tag (human, UniProt P12318 34-217)
T2 construct: extracellular domain; also called 2aH
T2 sequence: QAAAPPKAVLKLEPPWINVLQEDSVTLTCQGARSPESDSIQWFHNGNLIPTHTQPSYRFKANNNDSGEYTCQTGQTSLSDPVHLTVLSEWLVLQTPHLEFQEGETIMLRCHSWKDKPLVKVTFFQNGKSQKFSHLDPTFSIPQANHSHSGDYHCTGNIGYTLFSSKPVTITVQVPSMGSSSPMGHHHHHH

T3: FcγRIIa(R) extracellular domain, C-terminal His tag (human, UniProt P12318 34-217)
T3 construct: extracellular domain; also called 2aR
T3 sequence: T2 sequence with H134R

B1: GpH7-A5/GpH7-B3 variant Q295_13S/GpL16-k0 (antibody, human IgG1, kappa)
heavy 1: not shown
heavy 2: not shown
light: DIVMTQSPLSLPVTPGEPASISCQASESLVHSNRNTYLHWYLQKPGQSPQLLIYKVSNRFSGVPDRFSGSGSGTDFTLKISRVEAEDVGVYYCSQNTHVPPTFGQGTKVEIERTVAAPSVFIFPPSDEQLKSGTASVVCLLNNFYPREAKVQWKVDNALQSGNSQESVTEQDSKDSTYSLSSTLTLSKADYEKHKVYACEVTHQGLSSPVTKSFNRGEC
notes: heterodimerized IgG1, one H chain mutated; also called He Ab; copies: 1 + 1 + 2
B2: GpH7-A5/GpH7-B3 variant Q295_14T/GpL16-k0 (antibody, human IgG1, kappa)
heavy 1: not shown
heavy 2: not shown
light: B1 light
notes: as for B1
B3: GpH7-A5/GpH7-B3 variant Q295_15Y/GpL16-k0 (antibody, human IgG1, kappa)
heavy 1: not shown
heavy 2: not shown
light: B1 light
notes: as for B1
B4: GpH7-A5/GpH7-B3 variant Q295_16H/GpL16-k0 (antibody, human IgG1, kappa)
heavy 1: not shown
heavy 2: not shown
light: B1 light
notes: as for B1
B5: GpH7-A5/GpH7-B3 variant Q295_18N/GpL16-k0 (antibody, human IgG1, kappa)
heavy 1: not shown
heavy 2: not shown
light: B1 light
notes: as for B1
B6: GpH7-A5/GpH7-B3 variant S298_01G/GpL16-k0 (antibody, human IgG1, kappa)
heavy 1: not shown
heavy 2: not shown
light: B1 light
notes: as for B1
B7: GpH7-A5/GpH7-B3 variant S298_02A/GpL16-k0 (antibody, human IgG1, kappa)
heavy 1: not shown
heavy 2: not shown
light: B1 light
notes: as for B1
B8: GpH7-A5/GpH7-B3 variant S298_03V/GpL16-k0 (antibody, human IgG1, kappa)
heavy 1: not shown
heavy 2: not shown
light: B1 light
notes: as for B1
B9: GpH7-A5/GpH7-B3 variant S298_04F/GpL16-k0 (antibody, human IgG1, kappa)
heavy 1: not shown
heavy 2: not shown
light: B1 light
notes: as for B1
B10: GpH7-A5/GpH7-B3 variant S298_06M/GpL16-k0 (antibody, human IgG1, kappa)
heavy 1: not shown
heavy 2: not shown
light: B1 light
notes: as for B1
B11: GpH7-A5/GpH7-B3 variant S298_07I/GpL16-k0 (antibody, human IgG1, kappa)
heavy 1: not shown
heavy 2: not shown
light: B1 light
notes: as for B1
B12: GpH7-A5/GpH7-B3 variant S298_08L/GpL16-k0 (antibody, human IgG1, kappa)
heavy 1: not shown
heavy 2: not shown
light: B1 light
notes: as for B1
B13: GpH7-A5/GpH7-B3 variant S298_11K/GpL16-k0 (antibody, human IgG1, kappa)
heavy 1: not shown
heavy 2: not shown
light: B1 light
notes: as for B1
B14: GpH7-A5/GpH7-B3 variant S298_12R/GpL16-k0 (antibody, human IgG1, kappa)
heavy 1: not shown
heavy 2: not shown
light: B1 light
notes: as for B1
B15: GpH7-A5/GpH7-B3 variant S298_14T/GpL16-k0 (antibody, human IgG1, kappa)
heavy 1: not shown
heavy 2: not shown
light: B1 light
notes: as for B1
B16: GpH7-A5/GpH7-B3 variant S298_15Y/GpL16-k0 (antibody, human IgG1, kappa)
heavy 1: not shown
heavy 2: not shown
light: B1 light
notes: as for B1
B17: GpH7-A5/GpH7-B3 variant S298_16H/GpL16-k0 (antibody, human IgG1, kappa)
heavy 1: not shown
heavy 2: not shown
light: B1 light
notes: as for B1
B18: GpH7-A5/GpH7-B3 variant S298_19Q/GpL16-k0 (antibody, human IgG1, kappa)
heavy 1: not shown
heavy 2: not shown
light: B1 light
notes: as for B1
B19: GpH7-A5/GpH7-B3 variant S324_03V/GpL16-k0 (antibody, human IgG1, kappa)
heavy 1: not shown
heavy 2: not shown
light: B1 light
notes: as for B1
B20: GpH7-A5/GpH7-B3 variant S324_04F/GpL16-k0 (antibody, human IgG1, kappa)
heavy 1: not shown
heavy 2: not shown
light: B1 light
notes: as for B1
B21: GpH7-A5/GpH7-B3 variant S324_07I/GpL16-k0 (antibody, human IgG1, kappa)
heavy 1: not shown
heavy 2: not shown
light: B1 light
notes: as for B1
B22: GpH7-A5/GpH7-B3 variant S324_08L/GpL16-k0 (antibody, human IgG1, kappa)
heavy 1: not shown
heavy 2: not shown
light: B1 light
notes: as for B1
B23: GpH7-A5/GpH7-B3 variant S324_09D/GpL16-k0 (antibody, human IgG1, kappa)
heavy 1: not shown
heavy 2: not shown
light: B1 light
notes: as for B1
B24: GpH7-A5/GpH7-B3 variant S324_10E/GpL16-k0 (antibody, human IgG1, kappa)
heavy 1: not shown
heavy 2: not shown
light: B1 light
notes: as for B1
B25: GpH7-A5/GpH7-B3 variant S324_11K/GpL16-k0 (antibody, human IgG1, kappa)
heavy 1: not shown
heavy 2: not shown
light: B1 light
notes: as for B1
B26: GpH7-A5/GpH7-B3 variant S324_12R/GpL16-k0 (antibody, human IgG1, kappa)
heavy 1: not shown
heavy 2: not shown
light: B1 light
notes: as for B1

Target: T4, FcγRIa extracellular domain, C-terminal His tag (human, UniProt P12314 16-292)
T4 construct: extracellular domain; also called 1a
T4 sequence (P12314 other isoform, or with tags, fused parts or gaps): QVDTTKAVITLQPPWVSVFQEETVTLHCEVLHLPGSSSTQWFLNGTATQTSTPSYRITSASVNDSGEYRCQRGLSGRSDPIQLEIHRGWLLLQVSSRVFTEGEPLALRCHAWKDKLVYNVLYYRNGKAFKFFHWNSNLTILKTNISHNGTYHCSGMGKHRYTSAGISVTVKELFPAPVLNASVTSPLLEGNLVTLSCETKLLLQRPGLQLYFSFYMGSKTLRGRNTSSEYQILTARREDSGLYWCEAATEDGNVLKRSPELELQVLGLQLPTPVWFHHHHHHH
Assay: SPR; He Ab vs HeCon Ab (GpH7-A5/GpH7-B3/GpL16-k0)=100;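 also: surface plasmon resonance at 25 °C with the test antibody captured on a sensor chip via antigenic peptide, protein L or protein A/G and FcγR flowed over as analyte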
Experimental: (§1) The antibody of interest was analyzed for its interaction with FcγR using a BiaCore™ T100, BiaCore™ A100, or BiaCore™ 4000 surface plasmon resonance system (GE Healthcare Japan Corp.). The running buffer used was HBS-EP+ (GE Healthcare Japan Corp.). The assay temperature was set to 25° C. The sensor chips used were: a chip prepared by immobilizing antigenic peptides onto Series S Sensor Chip CM5 (GE Healthcare Japan Corp.) by the amine coupling method; a chip prepared by immobilizing antigenic peptides biotinylated in advance onto Series S Sensor Chip SA (certified) (GE Healthcare Japan Corp.) through their interaction; a chip prepared by immobilizing protein L (ACTIGEN, BioVision, Inc.) onto Series S Sensor Chip CM5 (GE Healthcare Japan Corp.); and a chip prepared by immobilizing protein A/G (Thermo Fisher Scientific K.K.) onto Series S Sensor Chip CM5 (GE Healthcare Japan Corp.). The antibody of interest was captured onto any of these chips and allowed to interact with FcγR diluted with a running buffer. The antibody captured on the chip was washed off through the reaction of 10 mM glycine-HCl (pH 1.5) to regenerate the chip, which was repetitively used.

Going from B1 to B2, the “He/Con 1a” value rises from 100% to 101%.

First: B3
Second: B4
The “He/Con 1a” value of the first is lower: 100% for the first, 101% for the second.

First: B5
Second: B6
The “He/Con 1a” value of the first is higher: 101% for the first, 100% for the second.

Going from B7 to B8, the “He/Con 1a” value rises from 103% to 106%.

First: B9
Second: B10
The “He/Con 1a” value of the first is lower: 106% for the first, 111% for the second.

B11 and B12 are the same in “He/Con 1a” value: 104% for the first, 104% for the second.

B13 and B14 are the same in “He/Con 1a” value: 106% for the first, 106% for the second.

B15 and B16 are the same in “He/Con 1a” value: 104% for the first, 104% for the second.

Compared with B17, B18 is higher in “He/Con 1a” value: 105% for the first, 106% for the second.

Going from B19 to B20, the “He/Con 1a” value rises from 97.7% to 103%.

Compared with B21, B22 is higher in “He/Con 1a” value: 96.2% for the first, 97.3% for the second.

Going from B23 to B24, the “He/Con 1a” value rises from 97.7% to 98.9%.

First: B25
Second: B26
The “He/Con 1a” value of the first is higher: 96.3% for the first, 95.9% for the second.

Target: T1, FcγRIIb extracellular domain, …
Assay: as above
Experimental: as §1

First: B1
Second: B2
The “He/Con 2b” value of the first is lower: 63.8% for the first, 74.9% for the second.

Going from B3 to B4, the “He/Con 2b” value falls from 73.3% to 70.3%.

Going from B5 to B6, the “He/Con 2b” value rises from 72.8% to 81.2%.

Compared with B7, B8 is lower in “He/Con 2b” value: 74.4% for the first, 65.4% for the second.

Compared with B9, B10 is higher in “He/Con 2b” value: 66.3% for the first, 103% for the second.

Compared with B11, B12 is higher in “He/Con 2b” value: 71.5% for the first, 110% for the second.

Compared with B13, B14 is lower in “He/Con 2b” value: 62.2% for the first, 58.6% for the second.

Going from B15 to B16, the “He/Con 2b” value falls from 79% to 62.2%.

First: B17
Second: B18
The “He/Con 2b” value of the first is lower: 64.4% for the first, 74.3% for the second.

First: B19
Second: B20
The “He/Con 2b” value of the first is higher: 128% for the first, 99.9% for the second.

Going from B21 to B22, the “He/Con 2b” value falls from 125% to 117%.

Compared with B23, B24 is lower in “He/Con 2b” value: 112% for the first, 101% for the second.

Compared with B25, B26 is lower in “He/Con 2b” value: 89.6% for the first, 82.4% for the second.

Target: T5, FcγRIIIa extracellular domain, C-terminal His tag (human, UniProt P08637 17-208)
T5 construct: extracellular domain; also called 3a
T5 sequence (P08637 other isoform, or with tags, fused parts or gaps): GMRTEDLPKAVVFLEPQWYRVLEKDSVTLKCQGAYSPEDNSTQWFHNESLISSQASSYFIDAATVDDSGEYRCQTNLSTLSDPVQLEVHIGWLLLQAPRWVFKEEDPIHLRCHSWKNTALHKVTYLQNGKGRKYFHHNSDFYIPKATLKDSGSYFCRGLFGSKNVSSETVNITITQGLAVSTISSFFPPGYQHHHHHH
Assay: as above
Experimental: as §1

First: B1
Second: B2
The “He/Con 3a” value of the first is lower: 90.4% for the first, 120% for the second.

First: B3
Second: B4
The “He/Con 3a” value of the first is higher: 81.5% for the first, 80.2% for the second.

First: B5
Second: B6
The “He/Con 3a” value of the first is higher: 85.7% for the first, 74.9% for the second.

Compared with B7, B8 is lower in “He/Con 3a” value: 151% for the first, 103% for the second.

Compared with B9, B10 is higher in “He/Con 3a” value: 77.6% for the first, 87.2% for the second.

Going from B11 to B12, the “He/Con 3a” value falls from 90.7% to 69.2%.

Compared with B13, B14 is higher in “He/Con 3a” value: 50% for the first, 52.1% for the second.

First: B15
Second: B16
The “He/Con 3a” value of the first is higher: 106% for the first, 80.6% for the second.

Compared with B17, B18 is lower in “He/Con 3a” value: 71.9% for the first, 70.6% for the second.

Going from B19 to B20, the “He/Con 3a” value falls from 101% to 99.3%.

First: B21
Second: B22
The “He/Con 3a” value of the first is higher: 101% for the first, 95.5% for the second.

First: B23
Second: B24
The “He/Con 3a” value of the first is higher: 110% for the first, 108% for the second.

Going from B25 to B26, the “He/Con 3a” value rises from 90.2% to 98.1%.

Target: T2, FcγRIIa(H) extracellular domain, …
Assay: as above
Experimental: as §1

First: B1
Second: B2
The “He/Con 2aH” value of the first is lower: 79.5% for the first, 86.2% for the second.

Going from B3 to B4, the “He/Con 2aH” value rises from 89.3% to 90.1%.

Compared with B5, B6 is lower in “He/Con 2aH” value: 87.8% for the first, 71.4% for the second.

Going from B7 to B8, the “He/Con 2aH” value rises from 74.3% to 83.2%.

Going from B9 to B10, the “He/Con 2aH” value rises from 75.5% to 95.8%.

Going from B11 to B12, the “He/Con 2aH” value falls from 84.9% to 83%.

Going from B13 to B14, the “He/Con 2aH” value rises from 63.9% to 67.4%.

Compared with B15, B16 is lower in “He/Con 2aH” value: 96.2% for the first, 71.2% for the second.

Going from B17 to B18, the “He/Con 2aH” value rises from 80.2% to 88.9%.

Going from B19 to B20, the “He/Con 2aH” value falls from 108% to 106%.

Going from B21 to B22, the “He/Con 2aH” value falls from 107% to 106%.

Compared with B23, B24 is lower in “He/Con 2aH” value: 117% for the first, 114% for the second.

First: B25
Second: B26
The “He/Con 2aH” value of the first is lower: 102% for the first, 107% for the second.

Target: T3, FcγRIIa(R) extracellular domain, …
Assay: as above
Experimental: as §1

Compared with B1, B2 is higher in “He/Con 2aR” value: 73% for the first, 79.2% for the second.

First: B3
Second: B4
The “He/Con 2aR” value of the first is higher: 82% for the first, 80.5% for the second.

First: B5
Second: B6
The “He/Con 2aR” value of the first is lower: 81.7% for the first, 94.5% for the second.

First: B7
Second: B8
The “He/Con 2aR” value of the first is higher: 87.2% for the first, 82.5% for the second.

First: B9
Second: B10
The “He/Con 2aR” value of the first is lower: 80.4% for the first, 104% for the second.

Compared with B11, B12 is higher in “He/Con 2aR” value: 86.2% for the first, 100% for the second.

First: B13
Second: B14
The “He/Con 2aR” value of the first is higher: 91% for the first, 81.6% for the second.

Compared with B15, B16 is lower in “He/Con 2aR” value: 94.2% for the first, 75.7% for the second.

First: B17
Second: B18
The “He/Con 2aR” value of the first is lower: 84.7% for the first, 90.9% for the second.

Compared with B19, B20 is lower in “He/Con 2aR” value: 113% for the first, 99.6% for the second.

Going from B21 to B22, the “He/Con 2aR” value rises from 109% to 110%.

First: B23
Second: B24
The “He/Con 2aR” value of the first is higher: 102% for the first, 99% for the second.

Compared with B25, B26 is lower in “He/Con 2aR” value: 91% for the first, 84% for the second.
